Source: patent publication US20060062783A1 (Amgen, published 2006)
Numbering of substitutions follows the chain as printed.

How the values were obtained:
[1] = biological target: T1, Human PTH (1-34) (human, not fully specified); experiment: BiaCore, 25° C., 34mer
T1 construct: Synthetic peptide bought from Bachem; also called hPTH (1-34); human 34mer
T1 peptide: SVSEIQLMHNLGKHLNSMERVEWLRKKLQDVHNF

[2] = biological target: T1, Human PTH (1-34); experiment: BiaCore, 37° C., 34mer
[3] = biological target: T1, Human PTH (1-34); experiment: cell-based or functional assay
[4] = biological target: T2, Human PTH-related peptide (1-34) (human); experiment: indirect: competition ELISA on biotinylated human PTH 1-34
T2 construct: Synthetic peptide bought from Bachem; also called PTH-related protein 1-34; PTHrP
Protocol: Biotinylated human PTH 1-34 was bound to streptavidin plates at 1 μg/mL for 30 minutes at RT. The plates were washed 5 times with dH2O. […] The titrated antibody was then transferred to the plate coated with human PTH 1-34 and allowed to bind for 1 hour at RT. After washing the plates 5 times with dH2O, 50 μL of Gt anti-Human (Fc)-HRP at 1 μg/mL was added to each well and the plates held 1 hour at RT. After washing the plates 5 times with dH2O, 50 μL of TMB substrate was added to each well. To stop the reaction, 50 μL of 1M phosphoric acid was added to each well. The plates were read at wavelength 450 nm.

[5] = biological target: T3, Human PTH (1-84) (human); experiment: BiaCore, 37° C., 84mer
T3 construct: Synthetic peptide bought from Bachem; also called hPTH1-84; Hu 84mer
T3 peptide: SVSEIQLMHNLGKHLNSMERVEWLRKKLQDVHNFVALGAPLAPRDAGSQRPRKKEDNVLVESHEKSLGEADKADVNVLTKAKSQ

[6] = biological target: T4, endogenous human PTH in pooled serum from hemodialysis patients (human, UniProt P01270 32-115, limits assumed); experiment: immunoassay-based Scatchard analysis in pooled serum of hemodialysis patients
T4 construct: Circulating hormone; may be a mix of intact PTH and fragments
T4 sequence (looked up): T3 peptide

[7] = biological target: T1, Human PTH (1-34); experiment: cell-based or functional assay
[8] = biological target: T3, Human PTH (1-84); experiment: KinExA, solution equilibrium, room temperature
Description: (§1) Kinetic analysis. […] This method involves solution-based determination of formal affinity measurements at equilibrium. Dual curve analysis with two known antibody concentrations and unknown antigen concentration was used to determine the KD measurements on human 34mer, human 84mer, cynomolgus 84mer and rat 84mer.

[9] = biological target: T5, Rat PTH (1-84) (rat); experiment: KinExA, solution equilibrium, room temperature
T5 construct: Synthetic peptide bought from Bachem; also called Rat 84mer
T5 peptide: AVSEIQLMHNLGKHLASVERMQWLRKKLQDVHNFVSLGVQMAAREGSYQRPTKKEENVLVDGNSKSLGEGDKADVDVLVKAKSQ
Description: as §1

[10] = biological target: T1, Human PTH (1-34); experiment: KinExA, solution equilibrium, room temperature
Description: as §1

[11] = biological target: T6, Cynomolgus PTH (1-84) (cynomolgus); experiment: KinExA, solution equilibrium, room temperature
T6 construct: Synthetic peptide (CS Bio Company for the KinExA measurement and the monkey study); also called cynoPTH (1-84); cynomolgus 84mer
T6 peptide: T3 peptide with V35I, V58I, N76D
Description: as §1

[12] = biological target: T7, PTH 20-28 peptide RVEWLRKAL; experiment: alanine-scanning peptide array
T7 construct: Alanine variant; the entry already holds the change
T7 peptide: RVEWLRKAL

[13] = biological target: T8, PTH 20-28 peptide RVEWARKKL; experiment: alanine-scanning peptide array
T8 construct: Alanine variant; the entry already holds the change
T8 peptide: RVEWARKKL

[14] = biological target: T9, PTH 20-28 peptide RVEWLAKKL; experiment: alanine-scanning peptide array
T9 construct: Alanine variant; the entry already holds the change
T9 peptide: RVEWLAKKL

[15] = biological target: T10, PTH 20-28 peptide RVAWLRKKL; experiment: alanine-scanning peptide array
T10 construct: Alanine variant; the entry already holds the change
T10 peptide: RVAWLRKKL

[16] = biological target: T11, PTH 20-28 peptide AVEWLRKKL; experiment: alanine-scanning peptide array
T11 construct: Alanine variant; the entry already holds the change
T11 peptide: AVEWLRKKL

[17] = biological target: T12, PTH peptide RVEWLRKKL (amino acids 20-28, wild type); experiment: alanine-scanning peptide array
T12 construct: Peptide on a custom peptide array; also called wild-type peptide
T12 peptide: RVEWLRKKL

[18] = biological target: T13, PTH 20-28 peptide RVEWLRKKA; experiment: alanine-scanning peptide array
T13 construct: Alanine variant; the entry already holds the change
T13 peptide: RVEWLRKKA

[19] = biological target: T14, PTH 20-28 peptide RVEALRKKL; experiment: alanine-scanning peptide array
T14 construct: Alanine variant; the entry already holds the change
T14 peptide: RVEALRKKL

[20] = biological target: T15, PTH 20-28 peptide RAEWLRKKL; experiment: alanine-scanning peptide array
T15 construct: Alanine variant; the entry already holds the change
T15 peptide: RAEWLRKKL

[21] = biological target: T16, PTH 20-28 peptide RVEWLRAKL; experiment: alanine-scanning peptide array
T16 construct: Alanine variant; the entry already holds the change
T16 peptide: RVEWLRAKL

[22] = biological target: T17, Human PTH (7-84) (human); experiment: ELISA on coated peptide; B cell supernatant
T17 construct: Synthetic peptide bought from Bachem; also called hPTH7-84; 7-84mer
T17 peptide: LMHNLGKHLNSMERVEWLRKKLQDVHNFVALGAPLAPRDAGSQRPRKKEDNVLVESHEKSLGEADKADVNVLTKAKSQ

[23] = biological target: T3, Human PTH (1-84); experiment: ELISA on coated peptide; B cell supernatant
[24] = biological target: T5, Rat PTH (1-84); experiment: ELISA on coated peptide; B cell supernatant
[25] = biological target: T18, Human PTH (18-48) (human); experiment: ELISA on coated peptide; B cell supernatant
T18 construct: Synthetic peptide bought from Bachem; also called hPTH18-48; 18-48mer
T18 peptide: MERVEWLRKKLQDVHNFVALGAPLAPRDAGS

T2 sequence (peptide, as listed by the source): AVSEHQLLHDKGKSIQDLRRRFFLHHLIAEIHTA

B1: anti-PTH mAb 026 (antibody, IgG2, V domains shown)
VH: QVQLVESGGGVVQPGRSLRLSCAASGFTFSSYGMHWVRQAPGKGLDWVAVISYDGSNKFYADSVKGRFTISRDNSKNTLYLQMNSLRAEDTAVYYCARDHWELLDYWGQGTLVTVSS
VL: DIVMTQTPLSLSVTPGQPASISCKSSQSLLDSDGKTYLYWYLQRSGQPPQLLIHEVSNRFSGVPYRFIGSGSGTDFTLKISRVEAEDVGAYYCMQGKQFPFIFGPGTKVDIK
notes: also called AB-PTH-XG2-026; well 126B1
Kd [1]: 3 nM
Kd [2]: 9.5 nM

B2: anti-PTH mAb 183 (antibody, human IgG2, V domains shown)
VH: EVQLVQSGAEVKKPGESLKISCKGSGYSFTSYWIGWVRQMPGKGLEWMGIISPGDSDTRYSPSFQGQVTISADKSISTAYLQWSSLKASDTAMYYCARQGDYVWGSYDSWGQGTLVTVSS
VL: DIVMTQTPLSLSVTPGRPASISCKSSQSLLDSDGKTYLYWYLQKPGQPPQLLIYEVSNRFSGVPDRFSGSGSGTDFTLRISRVEAEDVGIYFCMPSIHLWTFGQGTKVEIK
IC50 of calcium influx in UMR-106 cells (FLIPR) [3]: ~100 nM
binding result [4]: no binding (tested: 5 µg/mL PTHrp)
Kd [5]: 1 nM
Kd [6]: 0.06 nM
IC50 (read off the curve) [7]: ~100 nM
KD High [8]: 0.039 nM
KD Low [8]: 0.012 nM
Kd [8]: 0.022 nM
KD High [9]: 5 nM
KD Low [9]: 2 nM
Kd [9]: 3 nM
KD High [10]: 0.065 nM
KD Low [10]: 0.014 nM
Kd [10]: 0.033 nM
KD High [11]: 0.018 nM
KD Low [11]: 0.005 nM
Kd [11]: 0.01 nM
Kd [1]: 0.08 nM
binding result [12]: no binding
binding result [13]: no binding
binding result [14]: no binding
binding result [15]: no binding
binding result [16]: no binding
binding result [17]: binds
binding result [18]: no binding
binding result [19]: binds
binding result [20]: no binding
binding result [21]: binds
Kd [2]: 0.1 nM
OD [22]: 1.95 OD450
OD [23]: 1.4 OD450
OD [24]: 0.62 OD450
OD [25]: 3.26 OD450

B3: anti-PTH mAb 168g2/183k (antibody, V domains shown)
VH: B2 VH with G26R, S28I, S31N, S52Y, K74M, Y107F
VL: B2 VL
Kd [1]: 0.28 nM
Kd [2]: 0.64 nM

B4: anti-PTH mAb 168 (antibody, human IgG2, V domains shown)
VH: B2 VH with G26R, S28I, S31N, S52Y, K74M, Y107F
VL: B2 VL with R17Q, R79K, I90V, F92Y, P95Q, H98Q
notes: also called XG2-168; AB-PTH-XG2-168
Kd [1]: 2.7 nM
Kd [2]: 2.6 nM

B5: anti-PTH mAb 011 (antibody, IgG2, V domains shown)
VH: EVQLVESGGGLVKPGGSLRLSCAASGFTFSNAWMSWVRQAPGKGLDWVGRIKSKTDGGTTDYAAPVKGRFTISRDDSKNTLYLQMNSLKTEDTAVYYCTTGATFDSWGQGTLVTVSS
VL: DIVMTQSPLSLPVTPGEPASISCRSSQSLLHSNGYKFLDWFLQKPGQSPQLLIYLGSYRASGVPDRFSGRGSGTDFTLKISRVEAEDVGVYYCMQALQTPWTFGQGTKVEIK
notes: also called AB-PTH-XG2-011; well 133A8
Kd [1]: 1 nM
Kd [2]: 3.5 nM

B6: anti-PTH mAb 262 (antibody, IgG2, V domains shown)
VH: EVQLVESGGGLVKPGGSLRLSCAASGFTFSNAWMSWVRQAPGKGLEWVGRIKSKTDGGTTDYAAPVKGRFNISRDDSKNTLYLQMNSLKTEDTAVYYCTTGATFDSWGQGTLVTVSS
VL: B5 VL with F37Y, Y58I, R70S
notes: also called XG2-262; AB-PTH-XG2-262
OD [23]: 1.46 OD450
OD [24]: 2.11 OD450
OD [25]: 0.25 OD450

B7: anti-PTH mAb 225 (antibody, IgG2, V domains shown)
VH: not shown
VL: EIVMTQSPLNLPVTPGEPASISCRSSQSLLHSNGYKYLEWYLQKPGQSPQLLIYLGSNRASGVPDRFSGSGSGTDFTLKISRVEAEDVGVYYCMQTLQIPLTFGGGTKVEIK
notes: also called well 275A4
Kd [5]: 7.1 nM
Kd [1]: 0.35 nM
Kd [2]: 0.6 nM

B8: anti-PTH mAb 140 (antibody, IgG2, V domains shown)
VH: EVQLVESGGGLVKPGGSLTLSCAASGFTFSNAWLSWVRQAPGKGLEWVGRIKSKTDGGTTDYAAPVKGRFTVSRDDSKNTLFLQMNSLKTEDTAVYYCTTGATFDSWGQGTLVTVSS
VL: B5 VL with R70S, K79T
notes: also called AB-PTH-XG2-140; well 132G12
Kd [1]: 0.8 nM
Kd [2]: 5.2 nM

B9: anti-PTH mAb 214 (antibody, IgG2, V domains shown)
VH: EVQLVESGGGLVKPGGSLRLSCAASGSTFSNAWMSWVRQAPGKGLEWVGRIKSRTDGGTADYAAPVKGRFTISRDDLKKTLYLQMNSLKTEDTAVYYCTTYYFDSSGFPFDYWGQGTLVTVSS
VL: B7 VL with E1D, N10Y, I53V, T96A, I99T
notes: also called AB-PTH-XG2-214; well 267D10
Kd [5]: 1.6 nM
Kd [1]: 0.8 nM
Kd [2]: 0.4 nM

B10: anti-PTH mAb 045 (antibody, IgG2, V domains shown)
VH: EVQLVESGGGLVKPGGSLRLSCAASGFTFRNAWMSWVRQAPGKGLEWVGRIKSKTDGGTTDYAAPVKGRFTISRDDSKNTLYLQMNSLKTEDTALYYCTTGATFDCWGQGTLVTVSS
VL: B5 VL with K36N, F37Y, R70S, V90I, L97R
notes: also called AB-PTH-XG2-045; well 123B12
Kd [1]: 0.5 nM
Kd [2]: 2 nM

B11: anti-PTH mAb 124 (antibody, IgG2, V domains shown)
VH: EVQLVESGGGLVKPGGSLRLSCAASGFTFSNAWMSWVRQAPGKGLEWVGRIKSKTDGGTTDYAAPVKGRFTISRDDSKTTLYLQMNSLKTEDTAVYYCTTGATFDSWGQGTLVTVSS
VL: B5 VL with H31Y, Y35F, F37Y, R70S
notes: also called AB-PTH-XG2-124; well 135H11
Kd [1]: 0.5 nM
Kd [2]: 3.3 nM

B12: anti-PTH mAb 163 (antibody, IgG2, V domains shown)
VH: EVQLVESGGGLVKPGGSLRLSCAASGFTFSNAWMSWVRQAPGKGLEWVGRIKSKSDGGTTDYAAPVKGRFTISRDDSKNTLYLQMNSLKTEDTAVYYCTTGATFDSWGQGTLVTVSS
VL: B5 VL with S32R, F37Y, F41Y, R70S, F76S
notes: also called AB-PTH-XG2-163; well 130A1
Kd [5]: 41.1 nM
Kd [1]: 3 nM
Kd [2]: 7.9 nM

B13: anti-PTH mAb 057 (antibody, IgG2, V domains shown)
VH: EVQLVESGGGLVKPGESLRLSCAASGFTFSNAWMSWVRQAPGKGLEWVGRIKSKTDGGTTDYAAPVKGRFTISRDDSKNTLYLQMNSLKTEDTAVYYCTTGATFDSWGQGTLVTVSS
VL: B5 VL with H31Y, F37Y, F41Y, R70S
notes: also called AB-PTH-XG2-057; well 119G2
Kd [1]: 1 nM
Kd [2]: 1 nM
